Molecular target: T1, SigE^17–133 (B. subtilis SigE residues 17–133) (B. subtilis, 15N-labelled)
T1 construct: Cloned BamHI/XhoI into pET28-TxrA (His tag, thioredoxin, TEV site)
T1 chain: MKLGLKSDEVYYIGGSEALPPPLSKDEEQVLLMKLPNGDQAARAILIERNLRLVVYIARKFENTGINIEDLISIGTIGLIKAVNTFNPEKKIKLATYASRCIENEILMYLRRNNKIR
Assay: NMR titration; 1H-15N HSQC chemical shift perturbation; 100 uM 15N-labelled SigE 17-133 alone and with a 2-fold excess of unlabelled CsfB A48E; 298 K, 700 MHz; 50 mM HEPES pH 7.5, 150 mM KCl, 0.5 mM TCEP
Settings: both partners purified

B1: CsfB^A48E (natural protein, B. subtilis)
chain: MDETVKLNHTCVICDQEKNRGIHLYTKFICLDCERKVISTSTSDPDYEFYVKKLKSIHTPPLYS
notes: Anti-sigma factor CsfB (Gin), B. subtilis, with the stabilising mutation A48E; In pNIC28 (TEV-cleavable N-terminal His tag); also called CsfB/Gin; Gin; source: E. coli BL21(DE3)pLysS, purified (IMAC, SEC)
  binding result: binds

Reference: PMC10141391, “Structural Analysis of Bacillus subtilis Sigma Factors” (Microorganisms, 2023)
